Results on 12 molecules are retold here after PMC10333884, “Large‐scale phosphomimetic screening identifies phospho‐modulated motif‐based protein interactions” (Molecular Systems Biology, 2023).

Assay [1] addresses T1, TSG101 UEV (human), Q99816.
T1 chain: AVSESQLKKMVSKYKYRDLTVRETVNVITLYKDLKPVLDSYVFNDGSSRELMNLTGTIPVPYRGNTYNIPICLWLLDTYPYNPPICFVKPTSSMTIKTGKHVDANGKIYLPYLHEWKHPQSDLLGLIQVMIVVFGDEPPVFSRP
Description: FP. The settings on record: modification not given.

Assay [2] addresses SNX27 PDZ (human), Q96L92. Description: FP. The settings on record: modification not given.
Another assay addresses MAP1LC3A (human). Description: FP. The settings on record: modification not given.
A further assay has as its target T2, GGA1 VHS (human), Q9UJY5.
T2 chain: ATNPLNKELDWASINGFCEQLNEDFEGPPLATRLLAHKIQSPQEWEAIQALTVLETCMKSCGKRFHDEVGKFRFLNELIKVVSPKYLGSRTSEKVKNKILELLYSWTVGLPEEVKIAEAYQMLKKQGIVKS
Description: fluorescence polarisation; displacement of a FITC-labelled probe peptide (5 nM in the measurement) from the protein domain (1-2 fold over the probe's KD) by a dilution series of unlabelled peptide; room temperature; 50 mM sodium phosphate pH 7.4; KD calculated from the displacement curve; for KPNA4 ARM one probe for each pocket.

The next assay addresses RANBP2 RanBD4 (human). The description is as above.

The term IC50 denotes the concentration needed to halve the response being measured. Low readings indicate greater potency in that assay, high ones weaker potency in that assay. NGCSSPTAPLEPMSP [GJA1 E] returned an IC50 in assay [1] of 232 µM.
In assay [2], GMVSSTSFNGG [DAXX pS] had an IC50 of 427 µM.
QNLSRSWHDVQVSSAY [TPD52L2 pS] gave an IC50 with MAP1LC3A (human) of 60 µM.
In the assay with MAP1LC3A (human), QNLSREWHDVQVSSAY [TPD52L2 E] displayed an IC50 of 223 µM.
As to GMVSETSFNGG [DAXX E], the IC50 in assay [2] was 117 µM.
The term Kd denotes the free concentration of one partner at which half of the binding sites on the other are occupied at equilibrium, for simple one-to-one binding. As for DLLESPDVGLLKLAS (modifications not checked) [JUN_(59–73), phosphomimetic (E), P05412 59-73], the Kd in the assay with GGA1 VHS (human), Q9UJY5 was 450 µM.
As to HSGNVEPTAPPYLQES [TMEM55A E], the IC50 in assay [1] was 37 µM.
Consider INLFEKEKEMKKSPTS (modifications not checked) [GTSE1_(145–160), wild‐type, Q9NYZ3 145-160], for which, in the assay with GGA1 VHS (human), Q9UJY5, the Kd was 96 µM.
With NGCSSPTAPLSPMSP [GJA1 pS], the IC50 in assay [1] was 420 µM.
With KYSDDTPLPEPSYKYN (modifications not checked) [DHX38_(260–275), phosphomimetic (E), Q92620 260-275], the Kd with RANBP2 RanBD4 (human) was 470 µM.
Consider ETYYLSDEPLLGPPVG (modifications not checked) [GTSE1_(145–160), phosphomimetic (E), Q9NYZ3 145-160], for which the Kd in the assay with GGA1 VHS (human), Q9UJY5 is 199 µM.
HSGNVTPTAPPYLQES [TMEM55A pS] showed an IC50 in assay [1] of 34 µM.
